Data: PMC12328743
Bridges are numbered along the chain shown (N, C = ends). Where no end group is shown, it is not given here.

Target: staphylococcal TMcin-G1905 (mature transmembrane helix-containing bacteriocin peptide, processed product of TmcA) (Staphylococcus aureus (isolate G1905))

B1: staphylococcal TMcin-G1905 (mature transmembrane helix-containing bacteriocin peptide, processed product of TmcA) (peptide)
chain: AWFVVLLAAILVFATAIFAGLTIWCVVNQHGKFTGNWNWHIKGVSLDVECKR
modifications: disulfide 25-50
  discrete stepwise conductance events in voltage-clamped planar lipid bilayers (DPhPC, 150 mM KCl) after adding purified TMcin-G1905; median conductance: 10.8 nS
